Where two headings read alike, the source gives them in different places.
Assays:
αS1-casein (f1-9) [1] = target: T1, αS1-casein (f1-9)
T1 chain: RPKHPIKHQ

β-casein (f193-209) [2] = target: T2, β-casein (f193-209)
T2 chain: YQEPVLGPVRGPFPIIV

β-casein (f193-209) [3] = test system: T3, β-casein (f193-209); remark: listed apart in the source
T3 sequence: YQEPVLGPVRGPFPIIV

αS1-casein (f1-9) [4] = test system: T4, αS1-casein (f1-9); remark: listed apart in the source
T4 sequence: RPKHPIKHQ

B1: Lactobacillus helveticus CNRZ32 endopeptidase PepF (protein)
chain: MAIPTRSEVPEDLKWDLTRIFKTDQDWENAFDKAKDDVAKLSELKGSLAKSGKDLYEGLTKILAVKRDVENIYVYATMSSDVDTSNSHYLGYVSRVQSLSNQFEATTSFINPEILSIPAEKFEQFKKDEPRLADYAHYLEMITNKRPHTLPAEEEKIIADAGDAMSVSENTFNVLTNSDMEYGYVQDEDGNMEQLSNGLYSLLIQSQNRDVRKGAFNTLYASYGQFQNSLASTLSGVVKKHNYNARMHKYDSAREAALADNGVPVEVYDTLIKEVDSHLDLLHRYVALRKKILGLKDLQMWDMYVPLTGKPALSYNFEEAKKVAKEAMKPLGEDYLKHVDYIFNNRVIDPVESKGKVTGAYSGGAYDTDPYELLNWEDNIDSLYTLVHETGHSVHSWYTRHSQPYIYGNYPIFVAEIASTTNENILTEYFLDHITDPKTRAFILNHYLDSFKGTLFRQTQFAVFEQFIHEADAKGEPLTADILDDVYGQINQHYYGDSVEPGGDIALEWSRIPHFYYNFYVYQYATGFAAATALANKVVHGSQADRDAYLGYLKSGSSDYPTEIMKRAGVDMTKPDYLKDAFKTFEKRLNEFESLIGK
Specific activity (E. coli CFE) (αS1-casein (f1-9) [1]): - | Specific activity (E. coli CFE) (nmoles substrate hydrolyzed/h/mg protein) (β-casein (f193-209) [2]): 14 | Specific activity (E. coli CFE, control subtracted) (nmoles substrate hydrolyzed/h/mg protein) (β-casein (f193-209) [2]): 14

B2: Lactobacillus helveticus CNRZ32 endopeptidase PepO2 (protein)
chain: MNLAKIRGGAGDITKPDLNARIQDNLYLAVNSDWISKAKIPADRPLISSFSEIDLKIEKELMNDLADFASGKKALPDIPNFDKAIEVYKLAKDFAKRDADGFQPAQADLETLINLKDVDDVKQNLAKLLLRFSFPFLFEVEPDRKNTKTNSLSFDRNSLILPDTTSYQSPSAKQLLDVWQKQTENLLKMAGVEEAAAKKYATDAIALDAKIVKVAKSAEERADDVALYNPIKTNEFEEKTSSLNLGQLLEQLFEKKPNYVVVSEPKFLDHFNELFNQESFDELKGWLISIFINKAAAFLSEEFRQAAFPFKQATYGQKELPSQEKEAYYKANNLFDDVIGVYYGRTYFGEDAKADVEDMIHRMIDVYEQRITNNEWLSPATKEKAITKLRALVLKIGYPNKIDHVYDLFQVTPANEGGNLYSNQANIREVSLKHNFDKLYKPVDRSEWYMPGNLINACYDPQRNDITFPAAILEAPFYDINASRATNYGGIGVVIAHEISHAFDNNGAKYDEFGNMKNWWTKEDFAEFEKRTQAEIDLFDGIKYGPVTLNGKQIVSENIADQGGLTAGIEANKNEHGDMKELFENYARIWASKESPEIIKTIAAFDVHAPGPVRVNVQVQCQPEFYKAFNVQEGDGMWLDPAKRVVI
Specific activity (E. coli CFE) (nmoles substrate hydrolyzed/h/mg protein) (αS1-casein (f1-9) [1]): 1900 | Specific activity (E. coli CFE, control subtracted) (nmoles substrate hydrolyzed/h/mg protein) (αS1-casein (f1-9) [1]): 3700 | hydrolysis detected by RP-HPLC (pH 6.5, 37° C.) (αS1-casein (f1-9) [1]): significant hydrolysis of both β-CN(f193-209) and αs1-CN(f1-9) was detected with CFEs from E. coli DH5α (pSUW99) | Specific activity (E. coli CFE) (nmoles substrate hydrolyzed/h/mg protein) (β-casein (f193-209) [2]): 290 | Specific activity (E. coli CFE, control subtracted) (nmoles substrate hydrolyzed/h/mg protein) (β-casein (f193-209) [2]): 290 | hydrolysis detected by RP-HPLC (pH 6.5, 37° C.) (β-casein (f193-209) [2]): significant hydrolysis of both β-CN(f193-209) and αs1-CN(f1-9) was detected with CFEs from E. coli DH5α (pSUW99)

B3: Lactobacillus helveticus CNRZ32 endopeptidase PepO3 (protein)
chain: MTVRGGAGDITEADLSARPQDNLYLAVNSEWLKNAKIPSDRSRTSSFDGIDLNIEKELMQDFADFADGKKDLPDVPNFEKAVALYKIAKDFDRRNADGADPIQADLHEILGLRNFADFTLKAADFFKNGFPMPFDFSVEADMKNTKIHSLQFGGPGTFLPDTTTYKTPAAEKLLAVLKEQSINLLTMSGISKSEAEDYAEKALAYDAKIAKVVKSAEEWADYPATYNPISRDDFADKFKSFKMDYFLGELFAKKPERVINTEPRYLDYAEELLNEDVFAEIKAWMLVKFVNGVASSLSQEFREAAFPFSQALSGQPELPSGVKQAYHIANSDFSEVVGVYYGQTYFGAEAKADVTDMIHKMLDVYEKRIRENSWLSQATKDKAIVKLRALILKIGYPDKIEEIYDRLTVDPEASLYANEAQFGREQIKYNLEKLDQDVDRSVWLMPGNLVNACYDPQRNDLTFPAAILQKPFYDLKQSRSLNYGGIGVVIAHEISHAFDNNGAQFDEFGNMKNWWTEKDFAEFKKRTQAEIDLFDGIKYGPVTLNGKQIVSENIADQGGLTAAVEANKGEDGNMKELFENFARVWATKQLPESIKTQVSVDVHAPGPERANVQSQCQEEFYKAFDVTEHDGMWLDPEKRVVIW
Specific activity (E. coli CFE) (nmoles substrate hydrolyzed/h/mg protein) (αS1-casein (f1-9) [1]): 79 | Specific activity (E. coli CFE, control subtracted) (nmoles substrate hydrolyzed/h/mg protein) (αS1-casein (f1-9) [1]): 85 | Specific activity (Lc. lactis CFE), Cheddar cheese serum (αS1-casein (f1-9) [1]): 63 (25)^b, A | Specific activity (Lc. lactis CFE), defined peptide mix (αS1-casein (f1-9) [1]): 38 (9.0)^c, A | Specific activity (Lc. lactis CFE), individual peptide reaction (αS1-casein (f1-9) [1]): 41 (19)^b, A | Specific activity (E. coli CFE) (nmoles substrate hydrolyzed/h/mg protein) (β-casein (f193-209) [2]): 88 | Specific activity (E. coli CFE, control subtracted) (nmoles substrate hydrolyzed/h/mg protein) (β-casein (f193-209) [2]): 88 | Specific activity (Lc. lactis CFE), Cheddar cheese serum (β-casein (f193-209) [2]): 61 (23)^b, A | Specific activity (Lc. lactis CFE), defined peptide mix (β-casein (f193-209) [2]): 40 (6.0)^a, B | Specific activity (Lc. lactis CFE), single peptide reaction (β-casein (f193-209) [2]): 81 (7.0)^a, A | hydrolysis in spiked Cheddar cheese serum (RP-HPLC) (β-casein (f193-209) [2]): hydrolyzed completely within 12 hours

B4: Lactobacillus helveticus CNRZ32 PepO2 expressed as PpepO3:pepO2 translational fusion in Lactococcus lactis LM0230 (pSUW665) (enzyme)
chain: B2 chain
modifications: PpepO3 start and BamHI junction residues
Specific activity (Lc. lactis CFE), Cheddar cheese serum (β-casein (f193-209) [3]): 120 (32)^a, A | Specific activity (Lc. lactis CFE), defined peptide mix (β-casein (f193-209) [3]): 42 (10)^a, B | Specific activity (Lc. lactis CFE), single peptide reaction (β-casein (f193-209) [3]): 64 (1.5)^a, B | hydrolysis in spiked Cheddar cheese serum (RP-HPLC) (β-casein (f193-209) [3]): hydrolyzed completely within 12 hours | Specific activity (Lc. lactis CFE), Cheddar cheese serum (αS1-casein (f1-9) [4]): 150 (40)^a, B | Specific activity (Lc. lactis CFE), defined peptide mix (αS1-casein (f1-9) [4]): 84 (20)^b, C | Specific activity (Lc. lactis CFE), individual peptide reaction (αS1-casein (f1-9) [4]): 240 (10)^a, A | relative activity in the defined peptide mix (αS1-casein (f1-9) [4]): PepO2 had highest activity towards peptides αS1-CN (f1-9), and αS1-CN (f1-13)

B5: Lactobacillus helveticus CNRZ32 PepE expressed as PpepO3:pepE translational fusion in Lactococcus lactis LM0230 (pSUW666) (enzyme, UniProt P94870 1-438, looked up)
Aminopeptidase E: MAHELTVQELEKFSADFNKNPKNKVVARAAQRSGVLEASYNDRVQSELTRVFSTELDTDNVTNQKHSGRCWLFATLNVLRHEFGKKYKAKDFTFSQAYNFFWDKIERANMFYNRILDSADMPLDSRQVKTDLDFAGTDGGQFQMAAALVEKYGVVPSYAMPETFNTNDTTGFATALGDKLKKDALVLRKLKQEGKDDEIKKTREKFLSEVYQMTAIAVGEPPKKFDLEYRDDDKKYHLEKDLTPLEFLHKYLGGVDFDDYVVLTNAPDHEYDKLYGLPAEDNVSGSIRIKLLNVPMEYLTAASIAQLKDGEAVWFGNDVLRQMDRKTGYLDTNLYKLDDLFGVDLKMSKADRLKTGVGEVSHAMTLVGVDEDNGEVRQWKVENSWGDKSGAKGYYVMNNEWFNDYVYEVVVHKKYLTDKQKELAEGPITDLPAWDSLA
modifications: PpepO3 fusion junction residues; expressed in Lactococcus
Specific activity (Lc. lactis CFE), Cheddar cheese serum (αS1-casein (f1-9) [4]): 31 (17)^c, C | Specific activity (Lc. lactis CFE), defined peptide mix (αS1-casein (f1-9) [4]): 120 (7)^a, B | Specific activity (Lc. lactis CFE), individual peptide reaction (αS1-casein (f1-9) [4]): 190 (14)^a, A | relative activity in the defined peptide mix (αS1-casein (f1-9) [4]): PepE had highest activity towards αS1-CN (f1-9) and αS1-CN (f1-6)

B6: Lactobacillus helveticus CNRZ32 endopeptidase PepE2 (protein)
chain: MKHELTMAEIAKFQQEYKKEPQNRVAELAVVNNGVQKASFNTEGIRKLNRTFSIEIPTDNVTDQKQSGRCWLFAALNTLRHGFAKKYNTKNFTFSQNYLFFWDRVERANIFFDNILNTADKPLGDRTVHTYMQGPDADGGQWAMAVSLIRKYGLVPTYAQEESFTANNTAAFNRALNMKLREDGLILRKLAKENKTDEIETKRQEFLSEVYRMAVIAFGEPVQKFDLEFKDDDGKYHFDGDLTPLDFFHNYFTDDLDDYIVLFNAPDHEFDKLYALPFEDNVEGGTPVQFLNTEIDNLKEAAIKQLEAGETIWFGCDVGKDSDRQKGILSKGLYQTDTIFNIETKLSKKERLQTGASGSTHAMTLVGVDVVDGKPRQWKIENSWGAKVGEKGYFVMDDDWFNEYLFKVVVKKQYVPDKLVKIWEGEATPVEAWDSMA
hydrolysis under simulated cheese ripening conditions (αS1-casein (f1-9) [1]): No hydrolysis of either peptide was detected after incubation with CFE from E. coli transformed with pepE2 | hydrolysis under simulated cheese ripening conditions (β-casein (f193-209) [2]): No hydrolysis of either peptide was detected after incubation with CFE from E. coli transformed with pepE2

From patent US20050281914
